T1: GAD65 peptide on HLA-DRA*01:01 / HLA-DRB1*04:01 (human)
T1 peptide: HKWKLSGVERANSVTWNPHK

T2: influenza M protein (Influenza A MP54; also given MP74) peptide on HLA-DRA*01:01 / HLA-DRB1*04:01 (human)
T2 peptide: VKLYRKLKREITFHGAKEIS

B1: Clone_81 (TCR)
alpha TRAV29DV5 TRAJ45 CDR3: CAASRYSGGGADGLTF
beta TRBV12-4 TRBJ1-1 CDR3: CASSPQGGNTEAFF
B2: Clone_566 (TCR)
alpha TRAV29DV5 TRAJ45 CDR3: CAASRYSGGGADGLTF
beta TRBV12-4 TRBJ1-1 CDR3: CASSVQGGNTEAFF
B3: P196-1 (TCR)
alpha TRAV29DV5 TRAJ45 CDR3: CAASRYSGGGADGLTF
beta TRBV12-4 TRBJ1-1 CDR3: CASSLQGGNTEAFF

How the values were obtained:
[1] = biological target: T1, GAD65 peptide on HLA-DRA*01:01 / …; test: proliferation
[2] = biological target: T2, influenza M protein (Influenza A MP54; …); test: proliferation

Row | Binder | binding result [1] | binding result [2]
1 | B1 | recognises | recognises
2 | B2 | recognises | recognises
3 | B3 | recognises | recognises
